Data from the supplement of paper PMC5998384.

Key:
HeLa Kyoto [1] = test: solubility in G1/S (NP-40 vs SDS abundance) (log2 ratio); higher = more soluble; details: cell cycle stage: G1/S
HeLa Kyoto [2] = test: melting temperature (median over replicates), in situ; higher = more thermally stable
HeLa Kyoto [3] = test: solubility change mitosis vs G1/S (difference of NP-40 vs SDS log2 ratios) (log2 ratio difference); higher = more soluble in mitosis
HeLa Kyoto [4] = test: thermal stability score vs G1/S (z-score of summed log2 fold changes over temperatures); higher = more thermally stable than in G1/S
[5] = cell cycle stage: early G1 (4.5 h after nocodazole release)
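For melting temperature (median over replicates), in situ in this document: HeLa Kyoto cells synchronized by double thymidine or nocodazole block, proteins quantified by TMT10plex mass spectrometry, three independent biological replicates.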
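For solubility change mitosis vs G1/S (difference of NP-40 vs SDS log2 ratios) in this document: synchronized HeLa Kyoto cells (double thymidine block for G1/S, nocodazole release for mitosis), protein amounts in NP-40 versus SDS lysates quantified by mass spectrometry, three biological replicates.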
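For solubility in G1/S (NP-40 vs SDS abundance) in this document: HeLa Kyoto cells arrested at G1/S by double thymidine block, proteins quantified by TMT10plex mass spectrometry in mild NP-40 versus SDS extracts, three biological replicates.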
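For thermal stability score vs G1/S (z-score of summed log2 fold changes over temperatures) in this document: synchronized HeLa Kyoto cells, proteins quantified by TMT10plex mass spectrometry, three biological replicates, mitosis taken 0.5 h after nocodazole release, G1/S directly after double thymidine block.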

Row | Sequence | solubility in G1/S (log2) (HeLa Kyoto [1]) | melting temperature (HeLa Kyoto [2]; cell cycle stage: G1/S) [°C] | melting temperature (HeLa Kyoto [2]; cell cycle stage: mitosis) [°C] | solubility change mitosis (log2) (HeLa Kyoto [3]) | thermal stability score (HeLa Kyoto [4]; [5]) | thermal stability score (HeLa Kyoto [4]; cell cycle stage: mitosis)
1 | MGLLSDPVRRRALARLVLRLNAPLCVLSYVAGIAWFLALVFPPLTQRTYMSENAMGSTMVEEQFAGGDRARAFARDFAAHRKKSGALPVAWLERTMRSVGLEVYTQSFSRKLPFPDETHERYMVSGTNVYGILRAPRAASTESLVLTVPCGSDSTNSQAVGLLLALAAHFRGQIYWAKDIVFLVTEHDLLGTEAWLEAYHDVNVTGMQSSPLQGRAGAIQAAVALELSSDVVTSLDVAVEGLNGQLPNLDLLNLFQTFCQKGGLLCTLQGKLQPEDWTSLDGPLQGLQTLLLMVLRQASGRPHGSHGLFLRYRVEALTLRGINSFRQYKYDLVAVGKALEGMFRKLNHLLERLHQSFFLYLLPGLSRFVSIGLYMPAVGFLLLVLGLKALELWMQLHEAGMGLEEPGGAPGPSVPLPPSQGVGLASLVAPLLISQAMGLALYVLPVLGQHVATQHFPVAEAEAVVLTLLAIYAAGLALPHNTHRVVSTQAPDRGWMALKLVALIYLALQLGCIALTNFSLGFLLATTMVPTAALAKPHGPRTLYAALLVLTSPAATLLGSLFLWRELQEAPLSLAEGWQLFLAALAQGVLEHHTYGALLFPLLSLGLYPCWLLFWNVLFWK [GPAA1] | -0.07 | 53.7 | 53.4 | -0.232 | 0.0135 | 0.0397
2 | MGLLSQGSPLSWEETKRHADHVRRHGILQFLHIYHAVKDRHKDVLKWGDEVEYMLVSFDHENKKVRLVLSGEKVLETLQEKGERTNPNHPTLWRPEYGSYMIEGTPGQPYGGTMSEFNTVEANMRKRRKEATSILEENQALCTITSFPRLGCPGFTLPEVKPNPVEGGASKSLFFPDEAINKHPRFSTLTRNIRHRRGEKVVINVPIFKDKNTPSPFIETFTEDDEASRASKPDHIYMDAMGFGMGNCCLQVTFQACSISEARYLYDQLATICPIVMALSAASPFYRGYVSDIDCRWGVISASVDDRTREERGLEPLKNNNYRISKSRYDSIDSYLSKCGEKYNDIDLTIDKEIYEQLLQEGIDHLLAQHVAHLFIRDPLTLFEEKIHLDDANESDHFENIQSTNWQTMRFKPPPPNSDIGWRVEFRPMEVQLTDFENSAYVVFVVLLTRVILSYKLDFLIPLSKVDENMKVAQKRDAVLQGMFYFRKDICKGGNAVVDGCGKAQNSTELAAEEYTLMSIDTIINGKEGVFPGLIPILNSYLENMEVDVDTRCSILNYLKLIKKRASGELMTVARWMREFIANHPDYKQDSVITDEMNYSLILKCNQIANELCECPELLGSAFRKVKYSGSKTDSSN [GCLC] | 0.0288 | 52 | 51.8 | -0.172 | -0.677 | -1.1
3 | MGLQLRALLGAFGRWTLRLGPRPSCSPRMAGNAEPPPAGAACPQDRRSCSGRAGGDRVWEDGEHPAKKLKSGGDEERREKPPKRKIVLLMAYSGKGYHGMQRNVGSSQFKTIEDDLVSALVRSGCIPENHGEDMRKMSFQRCARTDKGVSAAGQVVSLKVWLIDDILEKINSHLPSHIRILGLKRVTGGFNSKNRCDARTYCYLLPTFAFAHKDRDVQDETYRLSAETLQQVNRLLACYKGTHNFHNFTSQKGPQDPSACRYILEMYCEEPFVREGLEFAVIRVKGQSFMMHQIRKMVGLVVAIVKGYAPESVLERSWGTEKVDVPKAPGLGLVLERVHFEKYNQRFGNDGLHEPLDWAQEEGKVAAFKEEHIYPTIIGTERDERSMAQWLSTLPIHNFSATALTAGGTGAKVPSPLEGSEGDGDTD [PUS1] | 0.281 | 46.8 | 48.7 | -0.119 | 1.9 | 6.23
4 | MGLQPLEFSDCYLDSPWFRERIRAHEAELERTNKFIKELIKDGKNLIAATKSLSVAQRKFAHSLRDFKFEFIGDAVTDDERCIDASLREFSNFLKNLEEQREIMALSVTETLIKPLEKFRKEQLGAVKEEKKKFDKETEKNYSLIDKHLNLSAKKKDSHLQEADIQVEQNRQHFYELSLEYVCKLQEIQERKKFEFVEPMLSFFQGMFTFYHQGHELAKDFNHYKMELQINIQNTRNRFEGTRSEVEELMNKIRQNPKDHKRASQFTAEGYLYVQEKRPAPFGSSWVKHYCMYRKAAKKFNMIPFEHRSGGKLGDGEVFFLKECTKRHTDSIDRRFCFDIEAADRPGVSLTMQAFSEEERKQWLEALGGKEALSHSFNTAIIPRPEGNAQLDKMGFTIIRKCISAVETRGINDQGLYRVVGVSSKVQRLLSMLMDVKTCNEVDLENSADWEVKTITSALKQYLRSLPEPLMTYELHGDFIVPAKSGSPESRVNAIHFLVHKLPEKNKEMLDILVKHLTNVSNHSKQNLMTVANLGVVFGPTLMRPQEETVAALMDLKFQNIVVEILIENHEKIFRTPPDTTFPEPTCLSASPPNAPPRQSKRQGQRTKRPVAVYNLCLELEDGDNPYPSKEDTPTSSLDSLSSPSPVTTAVPGPPGPDKNHLLADGGSFGDWASTIPGQTRSSMVQWLNPQSPTTTSSNSAVTPLSPGSSPFPFSPPATVADKPPESIRSRKARAVYPCEAEHSSELSFEIGAIFEDVQTSREPGWLEGTLNGKRGLIPQNYVKLL [ARHGAP10] | -0.255 | 51.7 | – | 0.08 | -0.188 | -0.186
5 | MGLSPSAPAVAVQASNASASPPSGCPMHEGKMKGCPVNTEPSGPTCEKKTYSVPAHQERAYEYVECPIRGTAAENKENLDPSNLMPPPNQTPAPDQPFALSTVREESSIPRADSEKKWVYPSEQMFWNAMLKKGWKWKDEDISQKDMYNIIRIHNQNNEQAWKEILKWEALHAAECPCGPSLIRFGGKAKEYSPRARIRSWMGYELPFDRHDWIINRCGTEVRYVIDYYDGGEVNKDYQFTILDVRPALDSLSAVWDRMKVAWWRWTS [HCCS] | 0.328 | 55.3 | 55.1 | -0.0745 | -0.00681 | -0.977
6 | MGLYAAAAGVLAGVESRQGSIKGLVYSSNFQNVKQLYALVCETQRYSAVLDAVIASAGLLRAEKKLRPHLAKVLVYELLLGKGFRGGGGRWKALLGRHQARLKAELARLKVHRGVSRNEDLLEVGSRPGPASQLPRFVRVNTLKTCSDDVVDYFKRQGFSYQGRASSLDDLRALKGKHFLLDPLMPELLVFPAQTDLHEHPLYRAGHLILQDRASCLPAMLLDPPPGSHVIDACAAPGNKTSHLAALLKNQGKIFAFDLDAKRLASMATLLARAGVSCCELAEEDFLAVSPSDPRYHEVHYILLDPSCSGSGMPSRQLEEPGAGTPSPVRLHALAGFQQRALCHALTFPSLQRLVYSTCSLCQEENEDVVRDALQQNPGAFRLAPALPAWPHRGLSTFPGAEHCLRASPETTLSSGFFVAVIERVEVPR [NSUN5] | -0.194 | 48.7 | 50.2 | 0.282 | 0.348 | -0.0976
7 | MGNCHTVGPNEALVVSGGCCGSDYKQYVFGGWAWAWWCISDTQRISLEIMTLQPRCEDVETAEGVALTVTGVAQVKIMTEKELLAVACEQFLGKNVQDIKNVVLQTLEGHLRSILGTLTVEQIYQDRDQFAKLVREVAAPDVGRMGIEILSFTIKDVYDKVDYLSSLGKTQTAVVQRDADIGVAEAERDAGIREAECKKEMLDVKFMADTKIADSKRAFELQKSAFSEEVNIKTAEAQLAYELQGAREQQKIRQEEIEIEVVQRKKQIAVEAQEILRTDKELIATVRRPAEAEAHRIQQIAEGEKVKQVLLAQAEAEKIRKIGEAEAAVIEAMGKAEAERMKLKAEAYQKYGDAAKMALVLEALPQIAAKIAAPLTKVDEIVVLSGDNSKVTSEVNRLLAELPASVHALTGVDLSKIPLIKKATGVQV [FLOT2] | -1.04 | 56.8 | 55.8 | 0.153 | -2.8 | -0.0606
8 | MGPLSARLLMQRGRPKSDRLGKIRSLDLSGLELLSEHLDPKLLCRLTQLQELDLSNNHLETLPDNLGLSHLRVLRCANNQLGDVTALCQFPKLEELSLEGNPFLTVNDNLKVSFLLPTLRKVNGKDASSTYSQVENLNRELTSRVTAHWEKFMATLGPEEEAEKAQADFVKSAVRDVRYGPESLSEFTQWRVRMISEELVAASRTQVQKANSPEKPPEAGAAHKPRARLAALKRPDDVPLSLSPSKRACASPSAQVEGSPVAGSDGSQPAVKLEPLHFLQCHSKNNSPQDLETQLWACAFEPAWEEGATSQTVATCGGEAVCVIDCQTGIVLHKYKAPGEEFFSVAWTALMVVTQAGHKKRWSVLAAAGLRGLVRLLHVRAGFCCGVIRAHKKAIATLCFSPAHETHLFTASYDKRIILWDIGVPNQDYEFQASQLLTLDTTSIPLRLCPVASCPDARLLAGCEGGCCCWDVRLDQPQKRRVCEVEFVFSEGSEASGRRVDGLAFVNEDIVASKGSGLGTICLWSWRQTWGGRGSQSTVAVVVLARLQWSSTELAYFSLSACPDKGIVLCGDEEGNVWLYDVSNILKQPPLLPAALQAPTQILKWPQPWALGQVVTKTMVNTVVANASFTYLTALTDSNIVAIWGRM [LRWD1] | -0.185 | 48 | 49.1 | -0.0674 | 1.14 | 1.7
9 | MGQGPRSPHKVGRRFPAGGKRGRGAKGSGRPLPGRKRQPWPPPDGRSEPAPDSHPHLSPEALGYFRRALSALKEAPETGEERDLMVHNIMKEVETQALALSTNRTGSEMLQELLGFSPLKPLCRVWAALRSNLRTVACHRCGVHVLQSALLQLPRLLGSAAEEEEEEEEDGKDGPTETLEELVLGLAAEVCDDFLVYCGDTHGSFVVRTLLQVLGGTILESERARPRGSQSSEAQKTPAQECKPADFEVPETFLNRLQDLSSSFLKDIAVFITDKISSFCLQVALQVLHRKLPQFCAHLCNAVIGYLSTRGSSVDGSPLLLFLRDQTSSRLLEQVLLVLEPPRLQSLFEEHLQGQLQTLAAHPIANFPLQRLLDAVTTPELLSPVFEELSPVLEAVLAQGHPGVVIALVGACRRVGAYQAKVLQLLLEAFHCAEPSSRQVACVPLFATLMAYEVYYGLTEEEGAVPAEHQVAMAAARALGDVTVLGSLLLQHLLHFSTPGLVLRSLGALTGPQLLSLAQSPAGSHVLDAILTSPSVTRKLRRRVLQNLKGQYVALACSRHGSRVLDAIWSGAALRARKEIAAELGEQNQELIRDPFGHHVARNVALTTFLKRREAWEQQQGAVAKRRRALNSILED [NOP9] | -0.0623 | 49.1 | 49.1 | 0.2 | 0.433 | 0.684
10 | MGQNDLMGTAEDFADQFLRVTKQYLPHVARLCLISTFLEDGIRMWFQWSEQRDYIDTTWNCGYLLASSFVFLNLLGQLTGCVLVLSRNFVQYACFGLFGIIALQTIAYSILWDLKFLMRNLALGGGLLLLLAESRSEGKSMFAGVPTMRESSPKQYMQLGGRVLLVLMFMTLLHFDASFFSIVQNIVGTALMILVAIGFKTKLAALTLVVWLFAINVYFNAFWTIPVYKPMHDFLKYDFFQTMSVIGGLLLVVALGPGGVSMDEKKKEW [SURF4] | 0.185 | 57.4 | 56.2 | 0.00821 | -0.529 | -2.05
11 | MGRCCFYTAGTLSLLLLVTSVTLLVARVFQKAVDQSIEKKIVLRNGTEAFDSWEKPPLPVYTQFYFFNVTNPEEILRGETPRVEEVGPYTYRELRNKANIQFGDNGTTISAVSNKAYVFERDQSVGDPKIDLIRTLNIPVLTVIEWSQVHFLREIIEAMLKAYQQKLFVTHTVDELLWGYKDEILSLIHVFRPDISPYFGLFYEKNGTNDGDYVFLTGEDSYLNFTKIVEWNGKTSLDWWITDKCNMINGTDGDSFHPLITKDEVLYVFPSDFCRSVYITFSDYESVQGLPAFRYKVPAEILANTSDNAGFCIPEGNCLGSGVLNVSICKNGAPIIMSFPHFYQADERFVSAIEGMHPNQEDHETFVDINPLTGIILKAAKRFQINIYVKKLDDFVETGDIRTMVFPVMYLNESVHIDKETASRLKSMINTTLIITNIPYIIMALGVFFGLVFTWLACKGQGSMDEGTADERAPLIRT [SCARB2] | 0.3 | 58.5 | 60.2 | -0.119 | -2.37 | -3.51
